From publication PMC11602160

Key:
[1] = biological target: N_(IDR1-core), N variant with IDR1, RBD and DD in which the 67-residue linker is replaced by a 12-residue GSA-linker (SARS-CoV-2)
[2] = biological target: N_(IDR1-core), N variant with IDR1, RBD and DD in which the 67-residue linker is replaced by a 12-residue GSA-linker (SARS-CoV-2); assay: ITC; iTC200, 10°C; […]; 20 mM Tris-HCl pH 8.0, 150 mM NaCl, 5% glycerol; […]

N_(IDR1-core), N variant with IDR1, RBD and DD in which the 67-residue linker is replaced by a 12-residue GSA-linker (domain or fragment)
stoichiometry N [1]: 2

UPF2S, UPF2 variant comprising the MIF4G3 and the U1BD domains (from UniProt Q9HAU5 761-1227) (domain or fragment)
Kd [2]: 2900 nM
